Laboratory results from US20250361544A1, “TYPE III-D CRISPR-CAS SYSTEM AND USES THEREOF” (BOARD OF REGENTS, THE UNIVERSITY OF TEXAS SYSTEM, published 2025).

T1: Cas10 subunit of the Synechocystis sp. PCC 6803 Type III-Dv CRISPR-Cas complex, with N-terminal His6 tag and … (Synechocystis sp. PCC 6803)
T1 construct: Whole gene amplified from Synechocystis genomic DNA and co-expressed in E. coli from pPF2434; The complex also holds a 37-nt crRNA; also called His6-TEV-Cas10; N-His6-tagged Cas10; not shown: TEV cleavage was inefficient, so
T1 chain: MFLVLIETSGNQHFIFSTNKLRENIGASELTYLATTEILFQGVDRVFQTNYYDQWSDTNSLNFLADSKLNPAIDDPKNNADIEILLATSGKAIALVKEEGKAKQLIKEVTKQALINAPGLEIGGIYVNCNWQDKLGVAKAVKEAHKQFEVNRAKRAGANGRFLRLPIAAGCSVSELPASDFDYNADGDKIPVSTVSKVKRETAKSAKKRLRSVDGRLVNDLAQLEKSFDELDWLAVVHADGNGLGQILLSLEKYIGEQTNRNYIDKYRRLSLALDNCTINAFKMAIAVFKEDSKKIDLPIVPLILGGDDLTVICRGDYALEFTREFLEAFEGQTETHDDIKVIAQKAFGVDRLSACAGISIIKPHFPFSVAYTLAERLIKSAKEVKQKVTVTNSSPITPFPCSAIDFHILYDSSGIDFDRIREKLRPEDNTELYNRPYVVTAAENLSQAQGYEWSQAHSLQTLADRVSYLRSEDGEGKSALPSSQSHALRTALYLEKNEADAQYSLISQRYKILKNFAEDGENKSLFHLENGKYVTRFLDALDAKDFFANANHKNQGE

T2: Cas7-Cas7 fusion subunit of the Synechocystis sp. PCC 6803 Type III-Dv complex (Synechocystis sp. PCC 6803)
T2 construct: Untagged, co-expressed from pPF2434 in E. coli; one copy in the complex; also called Cas7-2x; Cas7_2x
T2 chain: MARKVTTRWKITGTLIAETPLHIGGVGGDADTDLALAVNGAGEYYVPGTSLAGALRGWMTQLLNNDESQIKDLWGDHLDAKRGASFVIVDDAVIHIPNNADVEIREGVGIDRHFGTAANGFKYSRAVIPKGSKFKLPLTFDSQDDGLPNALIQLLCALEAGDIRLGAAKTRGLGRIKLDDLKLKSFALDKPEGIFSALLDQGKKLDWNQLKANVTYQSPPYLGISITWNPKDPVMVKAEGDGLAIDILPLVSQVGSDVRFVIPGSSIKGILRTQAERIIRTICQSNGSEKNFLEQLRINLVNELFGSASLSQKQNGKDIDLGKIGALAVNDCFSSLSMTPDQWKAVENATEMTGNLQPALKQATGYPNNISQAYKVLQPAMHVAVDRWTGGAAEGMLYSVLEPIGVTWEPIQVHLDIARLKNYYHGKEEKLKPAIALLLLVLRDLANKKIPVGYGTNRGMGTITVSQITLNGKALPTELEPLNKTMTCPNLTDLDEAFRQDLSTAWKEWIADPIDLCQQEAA

B1: mature crRNA spacer 1 (ssRNA)
RNA: ACUGAAACUGUAGUAGAACCAAUCGGGGUCGUCAAUA
B2: Csx19 subunit of the Synechocystis sp. PCC 6803 Type III-Dv complex (other)
chain: MPAGGRLMKNLYHYHQYEITLESAVDSCKNHLQAAIGLLYSPQKCELVKLDNSGKLVDSYNRLKFNNLGVFEARFFNLNCELRWVNESNGNGTAVLLSESDITLTGFEKGLQEFITAIDQQYLLWGEPAKHPPNADGWQRLAEARIGKLDIPLDNPLKPKDRVFLTSEEYIAEVDDFGNCAVIDERLIKLEVK
notes: Untagged, co-expressed from pPF2434 in E. coli; one copy in the complex
B3: Cas7-Cas5-Cas11 fusion subunit of the Synechocystis sp. PCC 6803 Type III-Dv complex (other)
chain: MRGIEITITMQSDWHVGTGMGRGELDSVVQRDGDNLPYIPGKTLTGILRDSCEQVALGLDNGQTRGLWHGWINFIFGDQPALAQGAIEPEPRPALIAIGSAHLDPKLKAAFQGKKQLQEAIAFMKPGVAIDAITGTAKKDFLRFEEVVRLGAKLTAEVELNLPDNLSETNKKVIAGILASGAKLTERLGGKRRRGNGRCELKFSGYSDQQIQWLKDNYQSVDQPPKYQQNKLQSAGDNPEQQPPWHIIPLTIKTLSPVVLPARTVGNVVECLDYIPGRYLLGYIHKTLGEYFDVSQAIAAGDLIITNATIKIDGKAGRATPFCLFGEKLDGGLGKGKGVYNRFQESEPDGIQLKGERGGYVGQFEQEQRNLPNTGKINSELFTHNTIQDDVQRPTSDVGGVYSYEAIIAGQTFVAELRLPDSLVKQITSKNKNWQAQLKATIRIGQSKKDQYGKIEVTSGNSADLPKPTGNNKTLSIWFLSDILLRGDRLNFNATPDDLKKYLENALDIKLKERSDNDLICIALRSQRTESWQVRWGLPRPSLVGWQAGSCLIYDIESGTVNAEKLQELMITGIGDRCTEGYGQIGFNDPLLSASLGKLTAKPKASNNQSQNSQSNPLPTNHPTQDYARLIEKAAWREAIQNKALALASSRAKREEILGIKIMGKDSQPTMTQLGGFRSVLKRLHSRNNRDIVTGYLTALEQVSNRKEKWSNTSQGLTKIRNLVTQENLIWNHLDIDFSPLTITQNGVNQLKSELWAEAVRTLVDAIIRGHKRDLEKAQENESNQQSQGAA
notes: Untagged, co-expressed from pPF2434 in E. coli; one copy in the complex; also called Cas7-5-11; Cas5-Cas7-Cas11

Key:
[1] = molecular target: Type III-Dv effector complex (Cas10, Cas7-Cas5-Cas11, Cas7-2x, Csx19, Cas7-insertion) (Synechocystis sp. PCC 6803); assay: structure; cryo-EM 2.5 A binary complex with 37-nt crRNA; settings: tags: N-terminal His6-TEV on Cas10
Protocol: (§1) Fully assembled Type III-D binary complex was diluted to a concentration of 0.3 mg/ml in SEC buffer before 2.5 μl of sample was added to a quantifoil 1.2/1.3 grid that was glow discharged for 1 minute. Sample was applied to the grid in an FEI Vitrobot MarkIV kept at 100% humidity and 4° C. before blotting for 5.5 seconds with a force of 0. For the ssRNA target-bound complex, non-self ssRNA was mixed with the binary complex with a 2:1 molar ratio of RNA:Binary complex in SEC buffer to a final protein concentration of 0.3 mg/mL. Grids of the target-bound complex were frozen identical to that of the binary complex. Both grids were loaded to an FEI Titan Krios (Sauer Structural Biology Lab, University of Texas at Austin) operating at 300 kV. Images were taken at a pixel size of 0.81 Å/pixel with a dose rate of 10.6 e⁻/pixel/s for 5 seconds using a Gatan K3 direct electron detector, giving a final dosage of 80.5 e⁻/Å². Data collection was automated using SerialEM using a defocus range of −1.2 to −2.2 μm.
(§2) To delineate the architecture of this Type III-Dv effector, we used cryo-EM to determine a 2.5-Å resolution structure of the complex containing the nt crRNA (FIG. 1e,f, FIG. 8). To gain preliminary insights, we generated initial models of each subunit using Alphafold 2. […]

[2] = molecular target: T1, Cas10 subunit of the Synechocystis sp. …; assay: cryo-EM structure (summary of Example 1)
Protocol: as §1

[3] = molecular target: B3; assay: cryo-EM structure (summary of Example 1)
Protocol: as §1

[4] = molecular target: T2, Cas7-Cas7 fusion subunit of the …; assay: cryo-EM structure of the binary complex, 2.5 Å
Protocol: as §1, §2

Binder: B1
- binding result [1]: binds

Binder: B2
- binding result [2]: binds
- binding result [3]: binds

Binder: B3
- binding result [4]: binds
